Assay results from patent US20200308290A1 (AbbVie / Abbott, published 2020).
Read-outs that look alike come from different tables or passages of the source.

T1: human CD25 (recombinant soluble) (human, UniProt P01589 22-240)
T1 construct: extracellular domain; bought protein; also called IL2-Rα; recombinant human IL2-Rα
T1 sequence (looked up): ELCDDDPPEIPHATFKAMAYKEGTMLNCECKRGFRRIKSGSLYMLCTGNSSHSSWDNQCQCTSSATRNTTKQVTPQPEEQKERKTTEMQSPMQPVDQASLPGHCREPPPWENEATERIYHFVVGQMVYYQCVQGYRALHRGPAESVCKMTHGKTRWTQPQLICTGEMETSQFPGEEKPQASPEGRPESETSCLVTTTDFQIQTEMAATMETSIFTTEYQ

T2: human CD25 (human, UniProt P01589 22-213, limits assumed)
T2 construct: Recombinant soluble human CD25, coated on plates (ELISA) or injected over captured antibody (BIAcore); also called hCD25; IL2-R alpha
T2 sequence (looked up): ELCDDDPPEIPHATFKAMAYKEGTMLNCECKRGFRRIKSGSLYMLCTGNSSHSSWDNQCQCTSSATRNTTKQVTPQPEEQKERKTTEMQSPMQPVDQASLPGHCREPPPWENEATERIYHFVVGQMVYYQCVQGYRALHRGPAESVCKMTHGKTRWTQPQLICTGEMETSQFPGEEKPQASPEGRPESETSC

T3: human CD25 on cells (human, UniProt P01589 22-272)
T3 sequence (looked up): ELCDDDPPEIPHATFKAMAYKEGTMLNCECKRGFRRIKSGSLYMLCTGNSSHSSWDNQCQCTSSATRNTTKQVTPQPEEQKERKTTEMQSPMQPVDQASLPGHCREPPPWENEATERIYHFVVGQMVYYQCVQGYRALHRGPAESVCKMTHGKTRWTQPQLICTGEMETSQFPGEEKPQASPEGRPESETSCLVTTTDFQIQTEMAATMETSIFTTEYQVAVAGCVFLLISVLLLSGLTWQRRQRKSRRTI


Assays:
[1] = target: T1, human CD25 (recombinant soluble); test: competitive ELISA with biotinylated daclizumab on CD25
Procedure: Wells of 96-well ELISA plates (Nunc-Immuno MaxiSorp plates, Nalge Nunc, Rochester, N.Y.) were coated with 100 μL of 0.2 μg/mL CD25 (Pepro Tech Inc., Rocky Hill, N.J.) in 0.2 M sodium carbonate-bicarbonate buffer (pH 9.4, Pierce, Rockford, Ill.) overnight at 4° C. After washing with Wash Buffer, wells were blocked with 200 μL of Superblock Blocking Buffer (Pierce, Rockford, Ill.) for 30 min and then washed. […] The plate was then washed with washing buffer three times. After washing, 100 μL of 1 μg/mL HRP-conjugated Streptavidin (Pierce) diluted in ELISA buffer was added to each well. After 30 minutes of incubation at room temperature, plates were washed and bound antibodies were detected by addition of ABTS substrate (Kirkegaard & Perry Laboratories, Gaithersburg, Md.). […] PRISM (GraphPad, San Diego) and reported as IC₅₀ wild type/IC₅₀ mutant (fold improvement over wild type control).

[2] = target: T4, cynomolgous monkey CD25 (cynomolgous monkey); test: SPR (BIAcore), cynomolgous CD25
T4 construct: also called cmCD25; cm

[3] = target: T4, cynomolgous monkey CD25; test: SPR (BIAcore), cynomolgous CD25; remark: listed apart in the source
[4] = target: T2, human CD25; test: SPR (BIAcore)
[5] = target: T3, human CD25 on cells; test: cell-based or functional assay
[6] = target: T2, human CD25; test: competition ELISA vs biotinylated daclizumab, fold over wild type
[7] = target: T2, human CD25; test: SPR (BIAcore); remark: listed apart in the source

Binder	fold affinity over the parental antibody [1] [fold]	Kd [2] [nM]	ELISA fold improvement [6] [fold]	further results
Variant C39 (antibody, V domains shown) VH: QVQLVQSGAEVKKPGSSVKVSCKASGYTFTSYRMHWVRQAPGQGLEWMGYISPRKGYTEYNQKFKDKATITADESTNTAYMELSSLRSEDTAVYYCARGGGVFDYWGQGTLVTVSS VL: DIQMTQSPSTLSASVGDRVTITCSASSKISYMHWYQQKPGKAPKLLIYTTSDLASGVPARFSGSGSGTEFTLTISSLQPDDFATYYCHQRSTYPLTFGQGTKVEVK	–	0.031	–	Kd [3]: 0.031 nM
Variant C34 (antibody, V domains shown, Isotype as printed: G2M3.QL) VH: QVQLVQSGAEVKKPGSSVKVSCKASGYTFTSYRMHWVRQAPGQGLEWMGYIKPSRGYTEYNQKFKDKATITADESTNTAYMELSSLRSEDTAVYYCARGGGVFDYWGQGTLVTVSS VL: DIQMTQSPSTLSASVGDRVTITCSASSKISYMHWYQQKPGKAPKLLIYTTSDLASGVPARFSGSGSGTEFTLTISSLQPDDFATYYCHQRSTYPLTFGQGTKVEVK	–	0.088	7.8	Kd [4]: 0.021 nM; Kit225 (fold improvement in inhibition of IL2-induced Kit225 proliferation) [5]: 3.1 fold; PBMC (fold improvement in inhibition of IL2-induced PHA blast proliferation) [5]: 6.4 fold
Variant C41 (antibody, name in Kabat numbering, V domains shown, Isotype as printed: G2M3.QL) VH: QVQLVQSGAEVKKPGSSVKVSCKASGYTFTSYRMHWVRQAPGQGLEWMGYISPRSGYTEYNQKFKDKATITADESTNTAYMELSSLRSEDTAVYYCARGGGVFDYWGQGTLVTVSS VL: DIQMTQSPSTLSASVGDRVTITCSASSSISYMHWYQQKPGKAPKLLIYTTSNLASGVPARFSGSGSGTEFTLTISSLQPDDFATYYCHQRSTYPLTFGQGTKVEVK	–	–	6.1	Kit225 (fold improvement in inhibition of IL2-induced Kit225 proliferation) [5]: 2.5 fold
RRGFE (antibody, IgG1, name in Kabat numbering, V domains shown, soluble IgG1 from the VH library; Kabat numbers; also called VH variant RRGFE) VH: QVQLVQSGAEVKKPGSSVKVSCKASGYTFTSYRMHWVRQAPGQGLEWIGYIRPRGGFTEYNQKFKDKATITADESTNTAYMELSSLRSEDTAVYYCARGGGVFDYWGQGTLVTVSS VL: DIQMTQSPSTLSASVGDRVTITCSASSSISYMHWYQQKPGKAPKLLIYTTSNLASGVPARFSGSGSGTEFTLTISSLQPDDFATYYCHQRSTYPLTFGQGTKVEVK	~10	–	–	–
Variant C29 (antibody, name in Kabat numbering, V domains shown, Isotype as printed: G2M3.QL) VH: QVQLVQSGAEVKKPGSSVKVSCKASGYTFTSYRMHWVRQAPGQGLEWMGYINPSSGYTEYNQKFKDKATITADESTNTAYMELSSLRSEDTAVYYCARGGGVFDYWGQGTLVTVSS VL: DIQMTQSPSTLSASVGDRVTITCSASSSISYMHWYQQKPGKAPKLLIYTTSELASGVPARFSGSGSGTEFTLTISSLQPDDFATYYCHQRSTYPLTFGQGTKVEVK	–	0.098	–	–
Variant C19 (antibody, name in Kabat numbering, V domains shown, Isotype as printed: G1 fa; also called SRK-SE) VH: QVQLVQSGAEVKKPGSSVKVSCKASGYTFTSYRMHWVRQAPGQGLEWIGYISPRKGYTEYNQKFKDKATITADESTNTAYMELSSLRSEDTAVYYCARGGGVFDYWGQGTLVTVSS VL: DIQMTQSPSTLSASVGDRVTITCSASSSISYMHWYQQKPGKAPKLLIYTTSELASGVPARFSGSGSGTEFTLTISSLQPDDFATYYCHQRSTYPLTFGQGTKVEVK	–	–	–	Kd [7]: 0.016 nM
RKGFN (antibody, IgG1, name in Kabat numbering, V domains shown, soluble IgG1 from the VH library; Kabat numbers; also called VH variant RKGFN) VH: QVQLVQSGAEVKKPGSSVKVSCKASGYTFTSYRMHWVRQAPGQGLEWIGYIRPKGGFTNYNQKFKDKATITADESTNTAYMELSSLRSEDTAVYYCARGGGVFDYWGQGTLVTVSS VL: DIQMTQSPSTLSASVGDRVTITCSASSSISYMHWYQQKPGKAPKLLIYTTSNLASGVPARFSGSGSGTEFTLTISSLQPDDFATYYCHQRSTYPLTFGQGTKVEVK	~10	–	–	–
Variant C26 (antibody, name in Kabat numbering, V domains shown, Isotype as printed: G1 fa; E to K read as E73K) VH: QVQLVQSGAEVKKPGSSVKVSCKASGYTFTSYRMHWVRQAPGQGLEWIGYIKPSRGYTEYNQKFKDKATITADKSTNTAYMELSSLRSEDTAVYYCARGGGVFDYWGQGTLVTVSS VL: DIQMTQSPSTLSASVGDRVTITCSASSSISYMHWYQQKPGKAPKLLIYTTSELASGVPARFSGSGSGTEFTLTISSLQPDDFATYYCHQRSTYPLTFGQGTKVEVK	–	–	–	Kd [7]: 0.121 nM
Variant C37 (antibody, name in Kabat numbering, V domains shown, Isotype as printed: G2M3.QL) VH: QVQLVQSGAEVKKPGSSVKVSCKASGYTFTSYRMHWVRQAPGQGLEWMGYIKPSSGYTEYNQKFKDKATITADESTNTAYMELSSLRSEDTAVYYCARGGGVFDYWGQGTLVTVSS VL: DIQMTQSPSTLSASVGDRVTITCSASSSISYMHWYQQKPGKAPKLLIYTTSELASGVPARFSGSGSGTEFTLTISSLQPDDFATYYCHQRSTYPLTFGQGTKVEVK	–	–	4.1	–
SNKYL (antibody, IgG1, name in Kabat numbering, V domains shown, soluble IgG1 from the VH library; Kabat numbers; also called VH variant SNKYL) VH: QVQLVQSGAEVKKPGSSVKVSCKASGYTFTSYRMHWVRQAPGQGLEWIGYISPNKGYTLYNQKFKDKATITADESTNTAYMELSSLRSEDTAVYYCARGGGVFDYWGQGTLVTVSS VL: DIQMTQSPSTLSASVGDRVTITCSASSSISYMHWYQQKPGKAPKLLIYTTSNLASGVPARFSGSGSGTEFTLTISSLQPDDFATYYCHQRSTYPLTFGQGTKVEVK	~10	–	–	–

Further lines, with some results ahead:

fold affinity over the parental antibody [1] [fold]	Kd [2] [nM]	ELISA fold improvement [6] [fold]	Binder	further results
~10	–	–	QRKFH (antibody, IgG1, name in Kabat numbering, V domains shown, soluble IgG1 from the VH library; Kabat numbers; also called VH variant QRKFH) VH: QVQLVQSGAEVKKPGSSVKVSCKASGYTFTSYRMHWVRQAPGQGLEWIGYIQPRKGFTHYNQKFKDKATITADESTNTAYMELSSLRSEDTAVYYCARGGGVFDYWGQGTLVTVSS VL: DIQMTQSPSTLSASVGDRVTITCSASSSISYMHWYQQKPGKAPKLLIYTTSNLASGVPARFSGSGSGTEFTLTISSLQPDDFATYYCHQRSTYPLTFGQGTKVEVK	–
–	0.188	7	Variant C35 (antibody, name in Kabat numbering, V domains shown, Isotype as printed: G2M3.QL) VH: QVQLVQSGAEVKKPGSSVKVSCKASGYTFTSYRMHWVRQAPGQGLEWMGYIKPSRGYTEYNQKFKDKATITADESTNTAYMELSSLRSEDTAVYYCARGGGVFDYWGQGTLVTVSS VL: DIQMTQSPSTLSASVGDRVTITCSASSSISYMHWYQQKPGKAPKLLIYTTSELASGVPARFSGSGSGTEFTLTISSLQPDDFATYYCHQRSTYPLTFGQGTKVEVK	Kd [4]: 0.034 nM; Kit225 (fold improvement in inhibition of IL2-induced Kit225 proliferation) [5]: 3 fold; PBMC (fold improvement in inhibition of IL2-induced PHA blast proliferation) [5]: 7.2 fold
–	–	4.2	Variant C43 (antibody, name in Kabat numbering, V domains shown, Isotype as printed: G2M3.QL) VH: QVQLVQSGAEVKKPGSSVKVSCKASGYTFTSYRMHWVRQAPGQGLEWMGYISPRSGYTEYNQKFKDKATITADESTNTAYMELSSLRSEDTAVYYCARGGGVFDYWGQGTLVTVSS VL: DIQMTQSPSTLSASVGDRVTITCSASSSISYMHWYQQKPGKAPKLLIYTTSELASGVPARFSGSGSGTEFTLTISSLQPDDFATYYCHQRSTYPLTFGQGTKVEVK	–
–	0.049	1.6	Variant C28 (antibody, V domains shown, Isotype as printed: G2M3.QL) VH: QVQLVQSGAEVKKPGSSVKVSCKASGYTFTSYRMHWVRQAPGQGLEWMGYINPSSGYTEYNQKFKDKATITADESTNTAYMELSSLRSEDTAVYYCARGGGVFDYWGQGTLVTVSS VL: DIQMTQSPSTLSASVGDRVTITCSASSKISYMHWYQQKPGKAPKLLIYTTSDLASGVPARFSGSGSGTEFTLTISSLQPDDFATYYCHQRSTYPLTFGQGTKVEVK	Kd [4]: 0.054 nM; Kit225 (fold improvement in inhibition of IL2-induced Kit225 proliferation) [5]: 2.8 fold; PBMC (fold improvement in inhibition of IL2-induced PHA blast proliferation) [5]: 5.8 fold
–	0.263	–	Variant C27 (antibody, name in Kabat numbering, V domains shown, Isotype as printed: G2M3.QL) VH: QVQLVQSGAEVKKPGSSVKVSCKASGYTFTSYRMHWVRQAPGQGLEWMGYINPSSGYTEYNQKFKDKATITADESTNTAYMELSSLRSEDTAVYYCARGGGVFDYWGQGTLVTVSS VL: DIQMTQSPSTLSASVGDRVTITCSASSSISYMHWYQQKPGKAPKLLIYTTSNLASGVPARFSGSGSGTEFTLTISSLQPDDFATYYCHQRSTYPLTFGQGTKVEVK	Kd [3]: 0.263 nM
~10	–	–	RRKFE (antibody, IgG1, name in Kabat numbering, V domains shown, soluble IgG1 from the VH library; Kabat numbers; also called VH variant RRKFE) VH: QVQLVQSGAEVKKPGSSVKVSCKASGYTFTSYRMHWVRQAPGQGLEWIGYIRPRKGFTEYNQKFKDKATITADESTNTAYMELSSLRSEDTAVYYCARGGGVFDYWGQGTLVTVSS VL: DIQMTQSPSTLSASVGDRVTITCSASSSISYMHWYQQKPGKAPKLLIYTTSNLASGVPARFSGSGSGTEFTLTISSLQPDDFATYYCHQRSTYPLTFGQGTKVEVK	–
~10	–	–	RKGFE (antibody, IgG1, name in Kabat numbering, V domains shown, soluble IgG1 from the VH library; Kabat numbers; also called VH variant RKGFE) VH: QVQLVQSGAEVKKPGSSVKVSCKASGYTFTSYRMHWVRQAPGQGLEWIGYIRPKGGFTEYNQKFKDKATITADESTNTAYMELSSLRSEDTAVYYCARGGGVFDYWGQGTLVTVSS VL: DIQMTQSPSTLSASVGDRVTITCSASSSISYMHWYQQKPGKAPKLLIYTTSNLASGVPARFSGSGSGTEFTLTISSLQPDDFATYYCHQRSTYPLTFGQGTKVEVK	–
